The DeepSol protein solubility set

Experiment: soluble on expression in E. coli; label from the status in PepcDB or PDB records

Soluble on expression in E. coli, soluble:
MAHHHHHHMLQLTVEDLTPEAIAALEVQCKAQAEKVNQLEEAMGLLQKELDDARKKYRSTSKAVQWRRLMAEVENDEDIANITVMMQEALADFYKTMQPPDDYDESREGISFCDTDDYADLTSVETKVDEFLLAIRRLVGENCASPEDDGDRRHQRRRALLMLLVLTINAARITDTPTEDAASLMEEQQDNIASLWQTLLHTDSGLVEAEKSEWKDIVSSFLGPPYDTST
MAGSNSRKPVVGMKIRVALVSALLAVSGCTTLSGKAPTLAPTPASTPPTSGKVTKSIISAMDGGLIGGSIGNGLSDEEKRSALEAEYKALEYTTSGQKVAWKGDQASHYGEVVPAQPYRVGSQDCRQYTQTVFTGGAGVTARGTACRNADGSWTPLTLEHHHHHH
ASGSMQGDPDVLRLLNEQLTSELTAINQYFLHSKMQDNWGFTELAAHTRAESFDEMRHAEEITDRILLLDGLPNYQRIGSLRIGQTLREQFEADLAIEYDVLNRLKPGIVMCREKQDTTSAVLLEKIVADEEEHIDYLETQLELMDKLGEELYSAQCVSRPPTSAWSHPQFEK
MTVVNEYRPVEVFFGEGAVKKAGEVGRRFGFKALIVTGRKSTKESGALDKLINSLKQNQIEYVVFDEITPNPTDKQVNKGAEIAVNEKVDFIVGIGGGSVLDAAKAISIVSSNEGYAWDYVRYPEGSRLIPFLNRPVITIPTTAGTGSEVNRYSVLTNPMTKEKMVISHSLNYPKVALVDPELTYSMPPRLTALTGFDALMHALESLTNKRENFIAEEYSVKAIELIRKWLPVAFEEPENKEARRYMSYAAMLAGIAIDHLGVALIHAMEHPVSGHYPEVAHAEGLSALAPYITAFNYRGNPEKYALFARLMGEEEKPHKAVDALVKFIERFSLPKTLKELGVEKEKLPRLAEDVYMCARHSFAVNPVEVGMEEVEELYERAYEGRL
ASNITRINEIIEIAVNNKRKVCLLGKSMDVNVNISRKIGLMDIDSNDIVEVRDIKNYPDRSILILCTGSQGEDSAALNTMARGKHNWVSLKSTDTIIMSSNPIPGNYAAVENLLNELSKYGVTIFENSPNMKLHASGHATQQELQLMLNLVFPRYLIPIHGEYKMMRTIKNIAQECGINGDDVGLLANGQVMYLIDGKLYYSGEVINADPIYIESRNSSPDLARVIKQRQILSREGMFAVIVVFDKNNNILGMPTLITRGCFFALDSSPLMTKITHSIKRGLENVIQNKRFNTREQMIKELKRVCKETVSYFIWKNKSRNPLISTVLSWV
GPGSMKSPHMARIGNSVYRDICPEDDPLCSNFGFEDYDLSRPTPMMRMSLLYNLHVSGESPSPAIDNMFRLAYRSRHGLVKIYKVMNVSAESKAWVADPKNRKCDAPGSWLCTGQYPPAKEIQEMLARRIDYGQLEDFNRGKRDDAYYRAYMRRIRNQGRG
MSLTLKTTEDLFQQSLHEYTITHAIEDKNVLRFHVDYYKPDGKSTPKPGETLAKRAVVDAILSKHDAATGGRRFNAILATASINDAIGYFGLFKTAQAEKQRVEPGYVPLNIAAVFSPPSDVSADVRQLQEDLPQEQEDNKKDSDAKKAALKAIIGDYNTRFGTNHRIEEFDAYYQDVQQRIKDQQFPNADLPDKGREKLDIVIVVDMLLTGFDSKYLNTLYVDKNLKYHGLIQAFSRTNRVLNDTKPYGNILDFRGQQKEVDAAIALFSGAKADKAREIWLVDTAPVVIDKLKEARGSLDSFLASQGLGGKPEDIANLKGTAAKVAFIKHFKDVQKLQTQLDQYTDLTAEQQAQVEAILPKDELRSFRGQYLQKAEELRADQKKAGEGHHHHHH
MSLHQFQQDNQYFIFNFDRTFEQATEFFQAEFWQKQERVIGSAKGRGITYFLQTEDWFGVNCALRHYYRGGLWGKLNKDRYRFSALETTRSFAEFHLLQRLYEAGLPVPKPIAARIQKGKLGICYQADILTEKIENAQDLTALLQTQTLPKETWMQIGRLIRKLHDLQICHTDLNAHNILLQQTEQGQKCWLLDFDKCGEKSADFWKVQNLNRLKRSFEKEVGRMNIQFTEQNWADLTSAYHQEGHHHHHH
MPLGLFSSGKAQVLCDEKIPGGKKKEPKQLSENKCKGVTLKLDHTRVTIEKQIAEGGFAIVYVASDRKNNKFALKRQFTKDNEKQLEACCREHSFLKQCIGHKNIVEFVDSYTNCLGNGIWECMLLTEYHQKNVLQLMNERISQNQYLTNDEILSIFTDLCEAVSFIHNRPQPIIHRDLKVENVLISSHKPPHYVLCDFGSATTQILSVEKYGVEYVKSEVERNTTMCYRSPEMIDFYSGLEIGLKSDIWALGVLLYRLCFFCVPFEESPLAIQSVNYQFPSVPNIPDEIKVLIYMLLDIDVNRRPSIYQTSVLAFEANHRKPLSEEIQNKKCTDAVPSLKSCIQLMRDGSNPRNKRDSSPRNPEAPPIQSSSKMASLSQQVPSISNISMPSGSGTVETSVAPRLRPKATTVVPNVPSISPVPPVGLPHLRLPSKGSTDETDGSQVRKVPIDFHHRQSFSGEEQLKPAAEADSAGPLSCPLIKPTDLGFTDLDKPALPRDRAQTDGKRRLPHESDIIFQQQHRRNVSDTSQISRSAFKPYSSQQTTSKTSSQVVRSVEDMSQRQNGGSGEWNPFLVAPFSNNSISRKDGQESAFMMDDSHFGMVFDEIRRKEIPAELDSETSSIDSRDPFGAAPFDQLTVSTSSSAQPVSLPPATDEDDERQLLSETDEEEKYEIDEKEEIQTKKDETINEEDSEIDEQRMNDRRRYSYENIDGVGDDASSDSRGKTDRDDSEEEEDDDSRRGGDTSHDEDSQNTVGSEDGEGGSRPLLEDDGLEDDDDHELISSFSSSSTNYPPLFIGTSTPHTQNPITNPFLRDELTPKMIITAPLPTAKNNLDDDWDLGDRWTDRRDTVFERPASEHQNVFAPATLPRQATPLVCRFKPDLPTAAPVSIIPSMSNTSFPEAVRDSDTVPCEPIIGTLISVGAPTDPPPPPLPKKPTEASPTQETTATIPVALGKKEKLLKKEKKKEKKDGKKDKLKLEEYREKGSSEPETDGSEAEIWTNDGATTFSNKKKKKSTFGLRSSHPSIVANDLQFSSPMPPVVKKSSKDKKSSLTGKNASFVNTSFQPEDHDDPTDL

Soluble on expression in E. coli, not soluble:
MKKLTFEQLRSVQMSILDRVHLFCERHDLEYSLAGGTLLGAIRHKGYIPWDDDIDIMMPREDYEYLLQNFAKEYPDFTFFNLDTKHNPYPFLFSKLSLNDSVISNGRIKGVGINIDIFPIDSLGKEKGAAKLRFSLMKAINFFARIQRSRHDRANPIVNIAFRLFQKCLKLLPKKWFLSAIKGLCSTCSVNDDGYAVSIGSSYLAKEFTESSLYHDYTSCPFEDRQYKCIARYDDYLSMIYGDYMQLPKEQDRENHDNVGFIKEHLLPMLEHHHHHH
MSLDTDRILRAFASLVQATLRTNYFVTRQGSARCRDVLALKLNAQLIDELPLPRPRYEIFVYSPRVEGVHLRFGPVARGGLRWSDRRDDFRTEILGLVKAQAVKNAVIVPVGAKGGFVVKRPPLPTGDPAADRDATRAEGVACYQLFISGLLDVTDNVDHATASVNPPPEVVRRDGDDAYLVVAADKGTATFSDIANDVAKSYGFWLGDAFASGGSVGYDHKAMGITARGAWEAVKRHFREIGIDTQTQDFTVVGIGDMSGDVFGNGMLLSKHIRLIAAFDHRHIFLDPNPDAAVSWAERRRMFELPRSSWSDYDRSLISEGGGVYSREQKAIPLSAQVRAVLGIDGSVDGGAAEMAPPNLIRAILRAPVDLLFNGGIGTYIKAESESDADVGDRANDPVRVNANQVRAKVIGEGGNLGVTALGRVEFDLSGGRINTDALDNSAGVDCSDHEVNIKILIDSLVSAGTVKADERTQLLESMTDEVAQLVLADNEDQNDLMGTSRANAASLLPVHAMQIKYLVAERGVNRELEALPSEKEIARRSEAGIGLTSPELATLMAHVKLGLKEEVLATELPDQDVFASRLPRYFPTALRERFTPEIRSHQLRREIVTTMLINDLVDTAGITYAFRIAEDVGVTPIDAVRTYVATDAIFGVGHIWRRIRAANLPIALSDRLTLDTREGHHHHHH
MKTDRLLADTKTIRYEETDLASLISAPYHFRCGIYLICTQGEAVVSTGVQKYIFNEQTELIFLTGGLLQVLETSGDLQVKMLMFPKEAFLNAMLPIDTPYFNYTHEHPCYHHTADERSQKTWRQINLWMDMAQMLFTEPMPQFRGQQEHNFLQSLLMWLFNTIPEKLAVSKQYSRTQLLCHRFMQLIREYSMHEHQVAFYAEKLCISSRYLHKITVRHLDGKKPKQLIDEQLVAEIKVLLNEPRLSVTEIAEQLHFPDQSYLTHFFKKNTGISPKEFRAIKNLG
MVLYVPTYREDKADNRAIDKAYFEKCLPGYTLINKLHPSIEDSDIDDVSSIDTSTLMLMSDIIISDYSSLPIEASLLDIPTIFYVYDEGTYDKVRGLNQFYKAIPDSYKVYTEEDLIMTIQEKEHLLSPLFKDWHKYNTDKSLHQLTEYIDKMVTK
METKYLRINPADNVAVAIVNLPAGEHLSVDGIEITLNEDIPAGHKFALKDFAEGENVIKYGYPIGHARMAKKQGDWMNETNIKTNLAGLLEYTYHPTQVTLDIPHKNLTFKGYRRKNGDVGVRNEIWIIPTVGCVNGIIGQLAEGLRRETEGKGVDAIVAFPHNYGCSQLGDDHENTKKILRDMVLHPNAGAVLIVGLGCENNQPDVFREFLGDYDQDRVKFMVTQKVGDEYEEGMDILRDLYAKASKDERTEVPLSELRVGLKCGGSDGFSGITANPLLGMFSDFLIAQGGTSVLTEVPEMFGAETILMNRCENKDLFEQTVHLINDFKEYFLSHGEPVGENPSPGNKAGGISTLEEKALGCTQKCGKSYVSGVMPYGERLQKKGLNLLSAPGNDLVAATTLAASGCHMVLFTTGRGTPFGTFVPTMKISTNSTLAKNKPGWIDFNAGVIVENEPMEKTCERFIEYVIKVASGEFVNNEKKGYREIAIFKTGVTL
MGSDKIHHHHHHMAILLMQKPDNKAKQFICKKLGINNLGITKPGGRGLTQPVVKLELKRPLYAKGNNYNIINNDETDRYWKPAGITKIFLDRLTNCVSQEAGNMALAEGYFSLEDRYTLYFDISKIQQEFVDLNAQEFFRQFDNLKTLGMLADIAIPLQLCNGLDASITNFSDGQFQSVYIYSIVELFKDRNCLTLLDEPDSFLHPEWQFEFPKQVLEITDAAAKSNHILMSSHSASTITTANENLINLFELQDDKIVVNKVNKADIIKSLSAGLISFSESEAHLNIHHALKNTTGAVLFTEGITDEMILETAWTKIFPAQKRSFAIQNAFDRIFLRNLFSREELEKNFPDRIMFALFDFDEAYDDWNGLKKESDSETDPYKGLSKQLKCKHHYAMLLPVPDIQALKHQVLNPEGKPWGKGAQSHLPIELLFYKDEFLGQWFQKKATPGGGEIIEFIGDKVSFAKNFVPTLEATCFEPLKLVFEFIQSKC
MIRTIERIITSTGFSLQHSDNGEITGLFYHCKLSSAYQPVFEAARNNIIGQEARIRADLNGNGEIQLSPWHIFALAPDDEQLIKLDRLCRTIHALNFLDNITNKQMKLFVSVQPRLLESVKDDHGSAFEQILDIIGIRTSRIVIEIPVEANRDWRLLKRVIMNYRAHGYLISVNYSGTNNDRISELGKLYPNVIRIDARDLLRRSVLDPLIVTAHNQGADVLVGNIETSYQLTDAIHAGADLLQGNFLARYSRKADNMLTPFSWQIPDERNGYRFDNESLQENQPYRSI
MKLFERIHQDTEIRQIYDAIGQMEDEEAGWAYHNWFHVTNVVAMTEMILKQLAVSEEYLEAAKIAALLHDVGALQGKAGHALRGKQFAEAYFRKQKICLPYQEEILSSIENHSNGFDSEELMTLALIISDKLDITTSRVAKAGYFVPGMRQFQFLKKIEIMLSEQEVCVSFTAEEELDLEELNAFYFMPKVFKAIAAFSGKIQRRPIVLLNNQEWPVPKQKNPSTVH
